Values belong to the binder of their own block, whether it stands above or below them.
Target: FZD1/2/4/5/7/8
Assay: cell-based or functional assay

EC50 (nM), TOPFLASH assay: 0.4 nM
Maximal Signal (% Wnt3a maxima) (% Wnt3a maxima): 42
B1: Fab-Dia (bispecific antibody)
heavy: EVQLVESGGGLVQPGGSLRLSCAASGFNIHSSSIHWVRQAPGKGLEWVAATYSSFGSITYADSVKGRFTISADTSKNTAYLQMNSLRAEDTAVYYCARYHHPFGYALDYWGQGTLVTVSSASTKGPSVFPLAPSSKSTSGGTAALGCLVKDYFPEPVTVSWNSGALTSGVHTFPAVLQSSGLYSLSSVVTVPSSSLGTQTYICNVNHKPSNTKVDKKVEPKSCDKTHTGGSGGEVQLVESGGGLVQPGGSLRLSCAASGFTISYSSIHWVRQAPGKGLEWVASISPYYGYTYYADSVKGRFTISADTSKNTAYLQMNSLRAEDTAVYYCARSSYFPWFSAMDYWGQGTLVTVSSGGGGSDIQMTQSPSSLSASVGDRVTITCRASQSVSSAVAWYQQKPGKAPKLLIYSASSLYSGVPSRFSGSRSGTDFTLTISSLQPEDFATYYCQQYYWPITFGQGTKVEIK
light: DIQMTQSPSSLSASVGDRVTITCRASQSVSSAVAWYQQKPGKAPKLLIYSASSLYSGVPSRFSGSRSGTDFTLTISSLQPEDFATYYCQQGVYLFTFGQGTKVEIKRTVAAPSVFIFPPSDEQLKSGTASVVCLLNNFYPREAKVQWKVDNALQSGNSQESVTEQDSKDSTYSLSSTLTLSKADYEKHKVYACEVTHQGLSSPVTKSFNRGECGGGGSEVQLVESGGGLVQPGGSLRLSCAASGFTISSYYIHWVRQAPGKGLEWVASIYSSYGYTSYADSVKGRFTISADTSKNTAYLQMNSLRAEDTAVYYCARTVRGSKKPYFSGWAMDYWGQGTLVTVSSGGGGSDIQMTQSPSSLSASVGDRVTITCRASQSVSSAVAWYQQKPGKAPKLLIYSASSLYSGVPSRFSGSRSGTDFTLTISSLQPEDFATYYCQQYYFLITFGQGTKVEIK

% Wnt Maxima Avg: 63%
EC50 (nM), TOPFLASH assay: 0.3 nM
Maximal Signal (% Wnt3a maxima) (% Wnt3a maxima): 63
Topflash EC50 (nM) Avg: 0.3 nM
B2: CM0011 (Dia-Fc-Dia) (bispecific antibody)
chain 1: MNLLLILTFVAAAVAEFEVQLVESGGGLVQPGGSLRLSCAASGFNIGSSSIHWVRQAPGKGLEWVASIYSAFASTSYADSVKGRFTISADTSKNTAYLQMNSLRAEDTAVYYCARYHFPFGFALDYWGQGTLVTVSSGGGGSDIQMTQSPSSLSASVGDRVTITCRASQSVSSAVAWYQQKPGKAPKLLIYSASSLYSGVPSRFSGSRSGTDFTLTISSLQPEDFATYYCQQGVYLFTFGQGTKVEIKLEDKTHTKVEPKSSDKTHNCPPCPAPELLGGPSVFLFPPKPKDTLMISRTPEVTCVVVDVSHEDPEVKFNWYVDGVEVHNAKTKPREEQYNSTYRVVSVLTVLHQDWLNGKEYKCKVSNKALPAPIEKTISKAKGQPREPQVYTLPPIRELMTSNQVSLSCAVKGFYPSDIAVEWESNGQPENNYKTTPPVLDSDGSFFLVSKLTVDKSRWQQGNVFSCSVMHEALHNHYTQKSLSLSPGKSGSETPGTSESATPESGGGEVQLVESGGGLVQPGGSLRLSCAASGFNISSYYIHWVRQAPGKGLEWVASIYSSYGYTSYADSVKGRFTISADTSKNTAYLQMNSLRAEDTAVYYCARTVRGSKKPYFSGWAMDYWGQGTLVTVSSGGGGSDIQMTQSPSSLSASVGDRVTITCRASQSVSSAVAWYQQKPGKAPKLLIYSASSLYSGVPSRFSGSRSGTDFTLTISSLQPEDFATYYCQQYSWGPFTFGQGTKVEIK
chain 2: MNLLLILTFVAAAVAEFEVQLVESGGGLVQPGGSLRLSCAASGFNIGSSSIHWVRQAPGKGLEWVASIYSAFASTSYADSVKGRFTISADTSKNTAYLQMNSLRAEDTAVYYCARYHFPFGFALDYWGQGTLVTVSSGGGGSDIQMTQSPSSLSASVGDRVTITCRASQSVSSAVAWYQQKPGKAPKLLIYSASSLYSGVPSRFSGSRSGTDFTLTISSLQPEDFATYYCQQGVYLFTFGQGTKVEIKLEDKTHTKVEPKTSDKTHTCPPCPAPELLGGPSVFLFPPKPKDTLMISRTPEVTCVVVDVSHEDPEVKFNWYVDGVEVHNAKTKPREEQYNSTYRVVSVLTVLHQDWLNGKEYKCKVSNKALPAPIEKTISKAKGQPREPMVFDLPPSREEMTKNQVSLWCMVKGFYPSDIAVEWESNGQPENNYKTTPPVLDSDGSFFLYSKLTVDKSRWQQGNVFSCSVMHEALHNHYTQKSLSLSPGKSGSETPGTSESATPESGGGEVQLVESGGGLVQPGGSLRLSCAASGFNISYSSIHWVRQAPGKGLEWVAYISSYYGYTYYADSVKGRFTISADTSKNTAYLQMNSLRAEDTAVYYCARAHYFPWAGAMDYWGQGTLVTVSSGGGGSDIQMTQSPSSLSASVGDRVTITCRASQSVSSAVAWYQQKPGKAPKLLIYSASSLYSGVPSRFSGSRSGTDFTLTISSLQPEDFATYYCQQYYWPITFGQGTKVEIK

Maximal Signal (% Wnt3a maxima) (% Wnt3a maxima): 22
B3: CH3 (Dia-CH3-Dia) (bispecific antibody)
chain: MNLLLILTFVAAAVAEFEVQLVESGGGLVQPGGSLRLSCAASGFNIGSSSIHWVRQAPGKGLEWVASIYSAFASTSYADSVKGRFTISADTSKNTAYLQMNSLRAEDTAVYYCARYHFPFGFALDYWGQGTLVTVSSGGGGSDIQMTQSPSSLSASVGDRVTITCRASQSVSSAVAWYQQKPGKAPKLLIYSASSLYSGVPSRFSGSRSGTDFTLTISSLQPEDFATYYCQQGVYLFTFGQGTKVEIKDKTHTKVEPKTSDKTHTCPPCPGQPREPQVYTLPPSREEMTKNQVSLTCLVKGFYPSDIAVEWESNGQPENNYKTTPPVLDSDGSFFLYSKLTVDKSRWQQGNVFSCSVMHEALHNHYTQKSLSLSPGKGTTAASGSSGGSSSGAGRTEVQLVESGGGLVQPGGSLRLSCAASGFNISYSSIHWVRQAPGKGLEWVAYISSYYGYTYYADSVKGRFTISADTSKNTAYLQMNSLRAEDTAVYYCARAHYFPWAGAMDYWGQGTLVTVSSGGGGSDIQMTQSPSSLSASVGDRVTITCRASQSVSSAVAWYQQKPGKAPKLLIYSASSLYSGVPSRFSGSRSGTDFTLTISSLQPEDFATYYCQQYSWGPFTFGQGTKVEIK

— patent US20250270332A1
